*: point of attachment. Cbz = O=C(OCc1ccccc1)*; Boc = CC(C)(C)OC(=O)*
Columns and labels:
[1] = biological target: CLuc-FGF14 (human) (human, UniProt Q92915 1-247); test: split reporter
[2] = biological target: T1, FGF14^WT (aa 64-252) (human) (UniProt Q92915); test: SPR
T1 sequence: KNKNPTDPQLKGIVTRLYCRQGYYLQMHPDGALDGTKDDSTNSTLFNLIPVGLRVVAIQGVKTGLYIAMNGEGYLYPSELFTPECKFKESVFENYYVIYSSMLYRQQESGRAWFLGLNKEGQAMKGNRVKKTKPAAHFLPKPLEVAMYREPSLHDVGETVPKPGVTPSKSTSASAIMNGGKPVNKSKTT

[3] = biological target: T2, FGF14^V160A (aa 64-252) (human) (UniProt Q92915); test: SPR
T2 sequence: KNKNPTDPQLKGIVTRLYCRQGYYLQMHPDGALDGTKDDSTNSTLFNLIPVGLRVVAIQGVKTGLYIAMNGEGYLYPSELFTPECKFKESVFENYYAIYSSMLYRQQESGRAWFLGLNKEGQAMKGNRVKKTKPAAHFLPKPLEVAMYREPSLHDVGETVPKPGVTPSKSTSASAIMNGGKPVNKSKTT

B1: ZL181 (Cbz-FLPK(Boc)-CONH2) (peptide)
peptide: Cbz-FLPK(Boc)-NH2
SMILES: CC(C)C[C@H](NC(=O)[C@H](Cc1ccccc1)NC(=O)OCc1ccccc1)C(=O)N1CCC[C@H]1C(=O)N[C@@H](CCCCNC(=O)OC(C)(C)C)C(N)=O
B1 was tested, and the IC50 [1] was 63 µM, the Kd [2] was 89.6 µM and the Kd [3] was 182 µM.
